Columns and labels:
Type in all cases: cell-based
293T-rtTA3G-CymR cells [1] = assay: Luciferase fluorescence intensity assay, transient transfection, both DOX and Cumate vs DOX alone (Example 2)
Source text: The experiment described in the present Example is to study and verify the effect of the position and copy number of the CuO operator in the Tet-On and Cumate complex response element on the induced expression level and non-induced leaky expression level of the complex response element, and to optimize and confirm the optimal position and copy number of the CuO operator. In the present Example, based on the 7×TetO sequence in the TRE3G response element and the minimal promoter sequence #1 (SEQ ID NO: 25), the response elements TRE3GCuO14 (10-317 bp in SEQ ID NO: 8), TRE3GCuO30 (SEQ ID NO: 28), TRE3GCuO50 (SEQ ID NO: 23) and TRE3GCuO100 (10-403 bp in SEQ ID NO: 10) were designed by linking a CuO operator sequence at 10 bp to 100 bp downstream of the TATA box (at 14 bp, 30 bp, 50 bp and 100 bp downstream of the TATA box, respectively), and a Luciferase reporter gene sequence was linked downstream of the 3′ end of the above response elements, to construct plasmids 18BF251, 18BF252, 18BF235 and 18BF253. Further, in order to study the effect of multiple copies of CuO operators, 2, 4 and 6 copies of CuO operator sequences were respectively inserted at 50 bp downstream of the TATA box, to design the response elements TRE3GCuO2x (10-411 bp in SEQ ID NO: 11), TRE3GCuO4x (10-527 bp in SEQ ID NO: 12) and TRE3GCuO6x (10-643 bp in SEQ ID NO: 13), and then a Luciferase reporter gene sequence was linked downstream of 3′ end of the above response elements to construct plasmids 18BF254, 18BF255 and 18BF256. In 293T-rtTA3G-CymR cells stably expressing rtTA3G and CymR genes, the above plasmids were transiently transfected, and the optimal position and number of CuO operator were validated by measuring the luciferase […] value of samples added with both DOX and Cumate inducers and that of the control added with the DOX inducer only. The specific experimental methods were as follows:
(§1) 293T cells were seeded at 1.5E+06 cells per 60 mm culture dish, and cultured in DMEM (Sigam, D6429) complete medium supplemented with 10% FBS (ExCell, 11H116) at 37° C. and 5% CO 2. After 24 hours of culture, transfection was carried out according to the PEI method. During transfection, 500 μL of transfection reagent which contained 5.5 ug of total plasmid was added to each 60 mm culture dish, and the mass ratio of total plasmid to PEI MAX (Polysciences, 24765-1) was 1:4. The transfection was carried out according to the PEI method, wherein the amount of total plasmid was 5.5 μg. The transfection was performed with plasmids 19BF074:18BF019 at a molar ratio of 10:1 to obtain 293T-rtTAadv-CymR cells; and the transfection was performed with plasmids 19BF075:18BF019 at a molar ratio of 10:1 to obtain 293T-rtTA3G-CymR cells. The plasmid and PEI MAX were mixed uniformly, and then put into a culture dish after standing for 15 minutes. 3 hours after transfection, the medium was changed to a complete DMEM medium, and the transfection operation was completed. After 24 hours of transfection, the cells were digested with trypsin and all seeded in a 100 mm culture dish (Corning, 430167), and 200 μg/ml of hygromycin (Sangon Biotech A600230-0001) drug screening was performed for at least three passages. After the growth of cells under the pressure of drug screening was consistent with that of the original 293T cells, the following experiments were performed.
The 293T-rtTA3G-CymR cells were seeded in a 96-well plate (Corning 3916) at 2.5E+04 cells per well, and the medium was 100 microliters of DMEM complete medium. […]

293T-rtTA3G-CymR cells [2] = assay: Luciferase assay, transient transfection, DOX and Cumate vs no inducer (Example 3), rtTA3G cells
Description: as §1
(§2) In Tet-On inducible expression system, the induced transcription activity and the leaky transcription activity were comprehensively affected by the TetO operator linking sequence of the TRE response element and the minimal promoter sequence, as well as different mutants of the transactivator rtTA. In addition, the transport and stability of messenger ribonucleic acid may be enhanced by linking a spliceable intron sequence downstream of the 3′ end of the response element and upstream of the 5′ end of the regulated nucleic acid fragment of interest, but the induced transcription activity and leaky transcription activity of response element of the inducible expression system may also be affected. Based on this, the optimal design scheme of complex response element was determined in this Example based on the induced expression level and the ratio of induced/leaky expression level of Luciferase gene under the combination of the following conditions: (1) Tet-On and Cumate complex response elements TREadvCuO and TRE3GCuO designed based on the TREadv and TRE3G response element sequences; (2) whether an intron was linked; (3) being regulated by the transactivator rtTAadv or rtTA3G. A total of 8 design schemes were compared in this Example: TREadv (18BF232), TREadvCuO (18BF233), TRE3G (18BF234), TRE3GCuO (18BF235), TREadv-BGI (18BF240, wherein the response element was TREadv, and a human β-globulin intron was linked between the 3′ end of the response element and the 5′ end of the Luciferase gene), TREadvCuO-BGI (18BF241, wherein the response element was TREadvCuO, and a human β-globulin intron was linked between the 3′ end of the response element and the 5′ end of the Luciferase gene), TRE3G-BGI (18BF236, wherein the response element was TRE3G, and a human β-globulin intron was linked between the 3′ end of the response element and the 5′ end of the Luciferase gene) and TRE3GCuO-BGI (18BF237, wherein the response element was TRE3GCuO, and a human β-globulin intron was linked between the 3′ end of the response element and the 5′ end of the Luciferase gene). The promoter CMV-BGI (18BF229, wherein the promoter was CMV, and a human β-globulin intron was linked between the 3′ end of the CMV promoter and the 5′ end of the Luciferase gene) was used as a positive control. […]

293T-rtTAadv-CymR cells = assay: Luciferase assay, transient transfection, DOX and Cumate vs no inducer (Example 3), rtTAadv cells
Description: as §1, §2

[3] = 1 ug/ml DOX and 200 ug/ml Cumate

B1: TRE3GCuO: Tet-On (7xTetO of TRE3G) and Cumate complex response element, CuO 50 bp behind the TATA box (SEQ ID NO: 23) (nucleic acid)
DNA: TCCCTATCAGTGATAGAGAACGTATGAAGAGTTTACTCCCTATCAGTGATAGAGAACGTATGCAGACTTTACTCCCTATCAGTGATAGAGAACGTATAAGGAGTTTACTCCCTATCAGTGATAGAGAACGTATGACCAGTTTACTCCCTATCAGTGATAGAGAACGTATCTACAGTTTACTCCCTATCAGTGATAGAGAACGTATATCCAGTTTACTCCCTATCAGTGATAGAGAACGTATTAGGCGTGTACGGTGGGCGCCTATAAAAGCAGAGCTCGTTTAGTGAACCGTCAGATCGCCTGGAGCAATTCCACATACAAACAGACCAGATTGTCTGTTTGTT
modifications: TRE3GCuO50 response element sequence
induced expression level as % of the induced expression level of TRE3G response element (293T-rtTA3G-CymR cells [1]; [3]): 66.0% | ratio of induced/leaky expression level based on Cumate inducible expression system, relative to that of TRE3G response element (293T-rtTA3G-CymR cells [1]; DOX and Cumate vs DOX only): 2.81 times | induced expression level (293T-rtTA3G-CymR cells [1]; transient transfection, 1 ug/ml DOX and 200 ug/ml Cumate, 24 hours after transfection): 4.53E+06 RLU | increase of induced/leaky expression ratio of TRE3GCuO over TREadvCuO (293T-rtTA3G-CymR cells [2]; 293T-rtTA3G-CymR cells): 37.6% | induced expression level as % of the induced expression level of TRE3G (293T-rtTA3G-CymR cells [2]; 293T-rtTA3G-CymR cells / regulation of rtTA3G): 61.8% | induced expression level (293T-rtTA3G-CymR cells [2]; 293T-rtTA3G-CymR cells, 1 ug/ml DOX and 200 ug/ml Cumate): 4.24E+06 RLU | induced expression level as % of that of the single regulatory response element (293T-rtTA3G-CymR cells [2]; 293T-rtTA3G-CymR cells, DOX and Cumate): 61.8% | induced/leaky expression ratio (293T-rtTA3G-CymR cells [2]; 293T-rtTA3G-CymR cells, DOX and Cumate vs no inducer): 2635 times | increase of induced/leaky expression ratio of TRE3GCuO over TREadvCuO (293T-rtTAadv-CymR cells): 16.4% | induced expression level as % of the induced expression level of TRE3G (293T-rtTAadv-CymR cells): 50.4% | induced expression level (293T-rtTAadv-CymR cells; [3]): 3.4E+06 RLU | induced expression level as % of that of the corresponding TRE3G or TREadv single regulatory response element (293T-rtTAadv-CymR cells; DOX and Cumate): 50.4% | induced/leaky expression ratio (293T-rtTAadv-CymR cells; DOX and Cumate vs no inducer): 1565 times
